Reference: patent US20200407708A1

Biological target: streptavidin (UniProt P22629)
Experiment: gel shift with streptavidin

UniProt P22629, sequence (P22629 37-163 limits assumed): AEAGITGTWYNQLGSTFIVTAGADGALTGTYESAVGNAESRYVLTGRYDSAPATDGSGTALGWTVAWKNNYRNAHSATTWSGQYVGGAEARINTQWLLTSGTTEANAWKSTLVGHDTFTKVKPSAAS

Work on biotinylated SpyCatcher002 (S50C) yielded a percent of protein biotinylated (shifted in the presence of streptavidin) of 90%.
